{"source": "paper PMC12538065", "test_system": "Zn(II)-bound Fur homodimer (Escherichia coli (expressed in MC4100))", "test": "HinfI restriction site protection", "settings": "0.5 uM (as monomer) sufficient to protect, not a Kd, 2 mM Mg2+, 3.2 nM pUC19-iuc, 20 mM Tris pH 8.0, 150 mM NaCl, 2 mM MgCl2, 0.1 mg/ml BSA, 10 min at room temperature, then HinfI (1 unit) 37 C 10 min"}
{"substance": "pUC19-iuc (Fur-box of iucABCD promoter)", "values": [{"measurement": "binding", "value": 0.5, "unit": "µM"}]}
